In patent publication US12545745B2, “Method for treating a degenerative neurological disorders comprising administering ASM inhibitor” (KYUNGPOOK NATIONAL UNIVERSITY INDUSTRY-ACADEMIC COOPERATION …, priority 2013, dated 2026):

What was measured:
APP/PS1 mice = test: Fear conditioning test in APP/PS1 mice; type: in vivo, mouse; conditions: 50 mg/kg i.p. twice weekly, vs PBS, FIG. 55D
Source text: More specifically, wild type mice, APP/PS1/ASM^+/− mice, ASM^+/− mice and APP/PS1 mice were used. On day 1 of the test, each mouse was individually placed into a conditioned chamber, and then after a 60-second exploratory period, a tone (10 kHz, 70 dB) was delivered for 10 seconds. This served as the conditioned stimulus (CS). The CS was coterminated with the unconditioned stimulus (US), an electrical footshock (0.3 mA, 1 s). The CS-US pairing was delivered twice at a 20-second intertrial interval. On day 2, each mouse was placed in the fear-conditioning chamber containing the same exact context, but without administration of a CS or footshock. […] On day 3, each mouse was placed in a test chamber that was different from the conditioning chamber. After a 60-second exploratory period, the tone was presented for 60 seconds without the footshock. Freezing response was measured to measure fear memory. The results are illustrated in FIG. 9 and FIG. 10.
For the fear conditioning test, on the first day, mice were placed in a conditioning chamber, and sound stimulation (10 kHz, 70 dB) and electrical stimulation (0.3 mA, 1 s) were given. On the second day, memory for space was checked without stimulation in the same conditioning chamber as on the first day, and on the third day, a memory test for fear was performed when only sound stimulation was given in another conditioning chamber.

ASM = target: T1, ASM (Mus musculus, UniProt Q04519); test: ASM activity in plasma of depression-induced (RSD stress) mice; type: in vivo; conditions: 50 mg/kg i.p. twice weekly for 4 weeks prior to induction, vs PBS, FIG. 58B
T1 construct: from tissue; host or cells: mouse serum/plasma and brain tissue (APP/PS1, RSD-stressed C57BL/6, FUS R521C mice)
T1 sequence (Q04519 45-627): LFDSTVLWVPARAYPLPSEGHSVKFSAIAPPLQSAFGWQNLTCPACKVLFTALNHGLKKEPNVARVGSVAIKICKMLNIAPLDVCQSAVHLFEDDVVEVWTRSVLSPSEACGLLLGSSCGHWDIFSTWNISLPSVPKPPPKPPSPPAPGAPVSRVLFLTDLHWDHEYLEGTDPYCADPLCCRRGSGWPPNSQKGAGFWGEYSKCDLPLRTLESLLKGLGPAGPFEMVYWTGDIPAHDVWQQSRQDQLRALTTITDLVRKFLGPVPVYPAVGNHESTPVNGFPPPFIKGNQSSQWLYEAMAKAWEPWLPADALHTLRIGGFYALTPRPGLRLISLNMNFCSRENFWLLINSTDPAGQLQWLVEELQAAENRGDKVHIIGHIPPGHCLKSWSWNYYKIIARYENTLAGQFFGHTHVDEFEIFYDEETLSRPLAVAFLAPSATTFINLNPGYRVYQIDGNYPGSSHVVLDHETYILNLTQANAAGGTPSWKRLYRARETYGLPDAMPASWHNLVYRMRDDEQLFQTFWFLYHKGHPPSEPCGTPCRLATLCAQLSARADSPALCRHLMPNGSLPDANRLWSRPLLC
Protocol: The concentration level of ASM was measured as follows. Specifically, 3μ ? of mouse serum, brain tissue and fibroblast samples were mixed with ASM activity buffer and stored at 37° C. 114 μ ? of ethanol was added to terminate the hydrolysis reaction, followed by centrifugation. 30 μ ? of supernatant was transferred to a glass vial, of which 5 μ ? was applied to the UPLC system. The ASM concentration levels were quantified by comparison with sphingomyelin and Bodipy (aminoacetaldehyde) conjugated with ceramide. The extraction and quantification of the sphingomyelin and ceramide was carried out by extracting and drying the lipids from the sample according to a known conventional method, and resuspending the dried lipid extract to 25 μl of 0.2% Igepal CA-630 (Sigma-Aldrich), and the concentration levels of each lipid were quantitated using the UPLC system. […]
The concentration level of ASM was measured as follows. […] The ASM concentration levels were quantified by comparison with sphingomyelin and Bodipy (aminoacetaldehyde) conjugated with ceramide. The extraction and quantification of the sphingomyelin and ceramide was carried out by extracting and drying the lipids from the sample according to a known conventional method, and resuspending the dried lipid extract to 25 μl of 0.2% Igepal CA-630 (Sigma-Aldrich), and the concentration levels of each lipid were quantitated using the UPLC system.

B1: ASM-ab 23A12C3: self-made monoclonal ASM antibody, Koma biotech; heavy chain SEQ ID NO. 29, light chain SEQ ID NO. 30 (antibody)
heavy: MGWSWIFLFLLSGTAGVHSEVQLQQSGPVLVKPGASVKMSCKASGYTFTDYYMNWVKQSHGKSLEWIGVINPYNDGTSYNQKFKGKATLTVDKSSSTAYMELNSLTSEDSAVYYCAREKLYYYGRDYAMDYWGQGTSVTVSSAKTTPPSVYPLAPGSAAQTNSMVTLGCLVKGYFPEPVTVTWNSGSLSSGVHTFPAVLQSDLYTLSSSVTVPSSTWPSQTVTCNVAHPASSTKVDKKIVPRDCGCKPCICTVPEVSSVFIFPPKPKDVLTITLTPKVTCVVVDISKDDPEVQFSWFVDDVEVHTAQTKPREEQINSTFRSVSELPIMHQDWLNGKEFKCRVNSAAFPAPIEKTISKTKGRPKAPQVYTIPPPKEQMAKDKVSLTCMITNFFPEDITVEWQWNGQPAENYKNTQPIMDTDGSYFVYSKLNVQKSNWEAGNTFTCSVLHEGLHNHHTEKSLSHSPGK
light: MSSAQFLGLLLLCFQGTRCDIQMTQTTSSLSASLGDRVTISCRSSQDISNYLNWCQQKPDGTVKLLIYYTSRLHSGVPSRFSGSGSGTDYSLTISNLEQEDIATYFCQQDNTLPYTFGGGTKLEIKRADAAPTVSIFPPSSEQLTSGGASVVCFLNNFYPKDINVKWKIDGSERQNGVLNSWTDQDSKDSTYSMSSTLTLTKDEYERHNSYTCEATHKTSTSPIVKSFNRNEC
modifications: 23A12C3_Heavy chain; 23A12C3_Light chain
notes: self-made monoclonal ASM antibody, Koma biotech; 30
In the case of B1, the “impairments in spatial memory, cognition and memory formation (fear conditioning test)” value (APP/PS1 mice) is reported as “improved” and the “level of ASM activity in the plasma” value (ASM) is reported as “significantly low”.
